Literature values in PMC3600088.

Biological target: Protective antigen (PA) (Bacillus anthracis) (UniProt P13423)

In the case of CMG2 (from UniProt P58335), the Kd is given as > 0.17 nM.
